Assay results as given in publication PMC10359602, “High fidelity DNA strand-separation is the major specificity determinant in DNA methyltransferase CcrM’s catalytic mechanism”.

Columns and labels:
CcrM WT [1] = target: T1, CcrM WT (Caulobacter crescentus, UniProt P0CAW2 1-358); assay: equilibrium Trp fluorescence; 60 uM sinefungin; smaller change than dsDNA; Anisotropy: 10 nM FAM-DNA, 0-1000 nM protein, 30 uM SAH, 100 mM HEPES, 1 mM EDTA, 20 mM NaCl, pH 8, room temperature, 20 min; Trp fluorescence: same buffer plus 2 mM DTT, 500 nM protein, 60 uM sinefungin, 5 uM DNA; settings: protein: recombinant; chain copies: 2; single strand
T1 sequence (P0CAW2 whole entry): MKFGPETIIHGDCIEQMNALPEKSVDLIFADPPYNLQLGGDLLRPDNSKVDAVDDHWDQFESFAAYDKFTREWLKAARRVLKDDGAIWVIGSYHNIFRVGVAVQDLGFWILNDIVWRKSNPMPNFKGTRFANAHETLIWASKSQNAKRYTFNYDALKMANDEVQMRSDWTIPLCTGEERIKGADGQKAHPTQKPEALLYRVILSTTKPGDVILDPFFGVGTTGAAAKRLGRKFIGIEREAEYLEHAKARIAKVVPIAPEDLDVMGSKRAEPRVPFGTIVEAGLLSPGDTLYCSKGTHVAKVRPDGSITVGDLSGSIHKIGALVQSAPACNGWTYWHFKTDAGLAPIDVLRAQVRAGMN

CcrM WT [2] = target: T1, CcrM WT; assay: fluorescence anisotropy; 30 uM SAH; Hill h = 2.5; apparent Kd; Anisotropy: 10 nM FAM-DNA, 0-1000 nM protein, 30 uM SAH, 100 mM HEPES, 1 mM EDTA, 20 mM NaCl, pH 8, room temperature, 20 min; Trp fluorescence: same buffer plus 2 mM DTT, 500 nM protein, 60 uM sinefungin, 5 uM DNA; settings: protein: recombinant; chain copies: 2; label: 5' 6-FAM on strand 1; blunt
CcrM R350A = CcrM R350A (Caulobacter crescentus, UniProt P0CAW2 1-358, R350A); assay: fluorescence anisotropy; 30 uM SAH; Hill h = 1.3; apparent Kd, above tested range 0-1000 nM; Anisotropy: 10 nM FAM-DNA, 0-1000 nM protein, 30 uM SAH, 100 mM HEPES, 1 mM EDTA, 20 mM NaCl, pH 8, room temperature, 20 min; Trp fluorescence: same buffer plus 2 mM DTT, 500 nM protein, 60 uM sinefungin, 5 uM DNA; settings: protein: recombinant; chain copies: 2; label: 5' 6-FAM on strand 1; blunt
CcrM R350A, sequence (P0CAW2 whole entry R350A): as the sequence (P0CAW2 whole entry) above, with R350A counted along it

CcrM WT [3] = target: T1, CcrM WT; assay: fluorescence anisotropy; 30 uM SAH; Hill h = 2.1; apparent Kd; Anisotropy: 10 nM FAM-DNA, 0-1000 nM protein, 30 uM SAH, 100 mM HEPES, 1 mM EDTA, 20 mM NaCl, pH 8, room temperature, 20 min; Trp fluorescence: same buffer plus 2 mM DTT, 500 nM protein, 60 uM sinefungin, 5 uM DNA; settings: protein: recombinant; chain copies: 2; label: 5' 6-FAM on strand 1; blunt

B1: cognate ssDNA (ssDNA)
DNA: TCACTGTACTCTGACTCGCCTGACATGAC
binding result (CcrM WT [1]): binds

B2: C1-FAM (dsDNA)
DNA 1: TCACTGTACTCTGACTCGCCTGACATGAC
DNA 2: GTCATGTCAGGCGAGTCAGAGTACAGTGA
modifications: N6-methyl-A at position 14 (5' to 3') of strand 2 (hemimethylated)
Kd (CcrM WT [2]): 150 ± 5.4 nM | Kd (CcrM R350A): 2110 ± 193 nM

B3: NC-FAM (dsDNA)
DNA 1: TCACTGTACTCTGACTGGCCTGACATGAC
DNA 2: GTCATGTCAGGCCAGTCAGAGTACAGTGA
modifications: N6-methyl-A at position 14 (5' to 3') of strand 2
Kd (CcrM WT [3]): 135 ± 7.6 nM
